Measured values reported in paper doi:10.1101/2024.05.02.592151 (bioRxiv, 2024).
Each block holds one binder with its values, some of them ahead of it.

Assays:
[1] = biological target: condensin II pentamer (recombinant, human) (human, UniProt O95347;Q9NTJ3;Q6IBW4;P42695;Q86XI2); experiment: cross-linking
[2] = biological target: T1, CAP-G2 (in recombinant human condensin II) (human, UniProt Q86XI2 1-1143); experiment: cross-linking
T1 sequence: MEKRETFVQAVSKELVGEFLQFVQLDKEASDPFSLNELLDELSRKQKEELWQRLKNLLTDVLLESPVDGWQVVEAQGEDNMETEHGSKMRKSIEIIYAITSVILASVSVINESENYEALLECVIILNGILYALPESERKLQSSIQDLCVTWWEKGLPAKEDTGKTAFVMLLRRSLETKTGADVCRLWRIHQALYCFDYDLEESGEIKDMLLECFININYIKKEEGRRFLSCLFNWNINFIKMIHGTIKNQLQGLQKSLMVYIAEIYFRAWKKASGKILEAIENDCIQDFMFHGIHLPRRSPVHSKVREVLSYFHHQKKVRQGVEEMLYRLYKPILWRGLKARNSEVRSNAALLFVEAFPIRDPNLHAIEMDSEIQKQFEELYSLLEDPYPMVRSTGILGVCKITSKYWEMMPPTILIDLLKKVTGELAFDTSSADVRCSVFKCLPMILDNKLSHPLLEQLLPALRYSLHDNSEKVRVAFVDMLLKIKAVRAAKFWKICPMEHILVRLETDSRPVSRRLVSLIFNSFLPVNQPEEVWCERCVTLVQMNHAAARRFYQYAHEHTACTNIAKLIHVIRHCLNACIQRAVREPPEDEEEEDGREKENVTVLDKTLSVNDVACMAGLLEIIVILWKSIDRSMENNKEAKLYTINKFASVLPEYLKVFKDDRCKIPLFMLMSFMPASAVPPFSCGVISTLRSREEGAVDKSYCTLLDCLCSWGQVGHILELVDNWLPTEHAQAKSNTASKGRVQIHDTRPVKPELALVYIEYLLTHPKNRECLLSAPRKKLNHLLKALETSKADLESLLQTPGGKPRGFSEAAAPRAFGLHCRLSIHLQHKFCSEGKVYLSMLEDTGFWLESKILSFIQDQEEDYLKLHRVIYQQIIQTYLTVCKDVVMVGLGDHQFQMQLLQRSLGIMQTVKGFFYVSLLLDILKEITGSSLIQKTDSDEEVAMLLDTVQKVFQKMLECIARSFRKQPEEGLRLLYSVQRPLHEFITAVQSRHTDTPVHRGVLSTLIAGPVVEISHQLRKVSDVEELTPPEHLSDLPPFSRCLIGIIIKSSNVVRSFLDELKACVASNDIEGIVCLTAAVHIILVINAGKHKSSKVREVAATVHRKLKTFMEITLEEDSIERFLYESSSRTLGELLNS

[3] = biological target: T2, CAP-D3 (in recombinant human condensin II) (human, UniProt P42695 1-1498); experiment: cryo-EM structure
T2 sequence: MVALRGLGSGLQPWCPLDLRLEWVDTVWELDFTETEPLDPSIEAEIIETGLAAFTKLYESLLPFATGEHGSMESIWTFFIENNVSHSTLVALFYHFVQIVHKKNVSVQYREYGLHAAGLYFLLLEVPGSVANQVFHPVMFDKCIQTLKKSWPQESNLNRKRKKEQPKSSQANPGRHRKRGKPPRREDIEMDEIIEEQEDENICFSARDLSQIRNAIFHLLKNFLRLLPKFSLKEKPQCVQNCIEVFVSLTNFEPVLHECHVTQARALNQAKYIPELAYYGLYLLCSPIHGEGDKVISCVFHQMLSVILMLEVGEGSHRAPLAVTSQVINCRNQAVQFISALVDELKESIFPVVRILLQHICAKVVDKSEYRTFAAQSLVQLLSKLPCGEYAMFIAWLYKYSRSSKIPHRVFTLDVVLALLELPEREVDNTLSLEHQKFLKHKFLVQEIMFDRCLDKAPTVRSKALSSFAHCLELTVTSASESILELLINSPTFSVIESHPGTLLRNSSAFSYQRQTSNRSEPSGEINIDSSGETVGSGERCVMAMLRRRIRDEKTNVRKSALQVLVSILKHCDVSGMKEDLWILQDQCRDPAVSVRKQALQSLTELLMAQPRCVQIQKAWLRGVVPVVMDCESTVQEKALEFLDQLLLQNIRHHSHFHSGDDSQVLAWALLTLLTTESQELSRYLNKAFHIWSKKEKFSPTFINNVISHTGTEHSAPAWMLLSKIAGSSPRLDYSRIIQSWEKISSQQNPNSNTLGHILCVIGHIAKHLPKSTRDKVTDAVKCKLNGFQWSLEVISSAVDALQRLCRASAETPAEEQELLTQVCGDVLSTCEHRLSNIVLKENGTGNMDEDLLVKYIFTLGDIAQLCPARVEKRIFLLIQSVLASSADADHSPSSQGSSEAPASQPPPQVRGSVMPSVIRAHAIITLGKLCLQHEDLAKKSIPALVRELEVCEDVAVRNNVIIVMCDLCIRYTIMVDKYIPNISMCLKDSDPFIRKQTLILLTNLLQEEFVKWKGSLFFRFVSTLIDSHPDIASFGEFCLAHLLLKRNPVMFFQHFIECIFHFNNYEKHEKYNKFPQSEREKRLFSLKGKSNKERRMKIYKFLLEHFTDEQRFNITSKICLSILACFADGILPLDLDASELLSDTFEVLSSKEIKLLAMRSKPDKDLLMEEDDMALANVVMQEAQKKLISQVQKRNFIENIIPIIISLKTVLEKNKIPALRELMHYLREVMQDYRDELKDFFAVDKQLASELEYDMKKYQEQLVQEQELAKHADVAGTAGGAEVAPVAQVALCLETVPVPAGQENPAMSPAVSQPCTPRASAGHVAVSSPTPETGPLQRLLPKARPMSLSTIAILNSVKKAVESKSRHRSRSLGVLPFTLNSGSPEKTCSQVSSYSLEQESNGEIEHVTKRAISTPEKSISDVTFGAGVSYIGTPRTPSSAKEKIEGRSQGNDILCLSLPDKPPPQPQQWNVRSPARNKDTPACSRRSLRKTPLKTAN

[4] = biological target: SMC4 (in recombinant human condensin II) (human, UniProt Q9NTJ3 2-1288); experiment: cryo-EM structure
Chain of SMC4 (in recombinant human condensin II) (Q9NTJ3 2-1288): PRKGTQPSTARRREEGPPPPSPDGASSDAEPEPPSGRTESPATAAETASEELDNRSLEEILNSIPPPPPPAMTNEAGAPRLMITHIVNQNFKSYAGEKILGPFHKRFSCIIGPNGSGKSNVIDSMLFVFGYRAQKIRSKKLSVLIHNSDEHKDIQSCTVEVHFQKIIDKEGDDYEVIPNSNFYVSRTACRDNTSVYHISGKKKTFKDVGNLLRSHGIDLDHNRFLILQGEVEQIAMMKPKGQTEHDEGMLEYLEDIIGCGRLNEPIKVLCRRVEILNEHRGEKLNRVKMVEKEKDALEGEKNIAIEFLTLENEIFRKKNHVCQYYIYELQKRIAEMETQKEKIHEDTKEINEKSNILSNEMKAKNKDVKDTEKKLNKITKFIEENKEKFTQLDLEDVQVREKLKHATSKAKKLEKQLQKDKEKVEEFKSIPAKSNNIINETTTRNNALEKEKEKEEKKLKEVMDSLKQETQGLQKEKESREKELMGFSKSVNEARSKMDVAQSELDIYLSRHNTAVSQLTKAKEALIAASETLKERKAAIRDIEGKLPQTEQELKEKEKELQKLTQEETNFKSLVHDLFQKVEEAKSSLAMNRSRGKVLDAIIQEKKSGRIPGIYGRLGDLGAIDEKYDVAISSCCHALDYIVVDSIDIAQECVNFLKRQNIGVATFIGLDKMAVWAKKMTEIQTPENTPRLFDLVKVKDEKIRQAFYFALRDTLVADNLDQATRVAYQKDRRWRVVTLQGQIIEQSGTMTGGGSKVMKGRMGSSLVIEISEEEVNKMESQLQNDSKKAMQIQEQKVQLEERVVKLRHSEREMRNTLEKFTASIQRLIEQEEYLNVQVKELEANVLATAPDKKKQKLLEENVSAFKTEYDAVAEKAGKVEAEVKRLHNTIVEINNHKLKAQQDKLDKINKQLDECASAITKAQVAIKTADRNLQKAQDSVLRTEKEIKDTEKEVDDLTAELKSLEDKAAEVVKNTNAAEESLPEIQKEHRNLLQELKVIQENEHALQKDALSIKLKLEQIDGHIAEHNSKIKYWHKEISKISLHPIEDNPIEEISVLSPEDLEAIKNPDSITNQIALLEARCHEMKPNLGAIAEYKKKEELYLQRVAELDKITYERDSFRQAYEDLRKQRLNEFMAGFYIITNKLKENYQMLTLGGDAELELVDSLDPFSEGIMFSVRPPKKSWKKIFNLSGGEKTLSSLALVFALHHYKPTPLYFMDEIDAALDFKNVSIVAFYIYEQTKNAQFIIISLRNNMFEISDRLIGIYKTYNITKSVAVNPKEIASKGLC

[5] = biological target: SMC2 (in recombinant human condensin II) (human, UniProt O95347 1-1197); experiment: cryo-EM structure
Chain of SMC2 (in recombinant human condensin II) (O95347 whole entry): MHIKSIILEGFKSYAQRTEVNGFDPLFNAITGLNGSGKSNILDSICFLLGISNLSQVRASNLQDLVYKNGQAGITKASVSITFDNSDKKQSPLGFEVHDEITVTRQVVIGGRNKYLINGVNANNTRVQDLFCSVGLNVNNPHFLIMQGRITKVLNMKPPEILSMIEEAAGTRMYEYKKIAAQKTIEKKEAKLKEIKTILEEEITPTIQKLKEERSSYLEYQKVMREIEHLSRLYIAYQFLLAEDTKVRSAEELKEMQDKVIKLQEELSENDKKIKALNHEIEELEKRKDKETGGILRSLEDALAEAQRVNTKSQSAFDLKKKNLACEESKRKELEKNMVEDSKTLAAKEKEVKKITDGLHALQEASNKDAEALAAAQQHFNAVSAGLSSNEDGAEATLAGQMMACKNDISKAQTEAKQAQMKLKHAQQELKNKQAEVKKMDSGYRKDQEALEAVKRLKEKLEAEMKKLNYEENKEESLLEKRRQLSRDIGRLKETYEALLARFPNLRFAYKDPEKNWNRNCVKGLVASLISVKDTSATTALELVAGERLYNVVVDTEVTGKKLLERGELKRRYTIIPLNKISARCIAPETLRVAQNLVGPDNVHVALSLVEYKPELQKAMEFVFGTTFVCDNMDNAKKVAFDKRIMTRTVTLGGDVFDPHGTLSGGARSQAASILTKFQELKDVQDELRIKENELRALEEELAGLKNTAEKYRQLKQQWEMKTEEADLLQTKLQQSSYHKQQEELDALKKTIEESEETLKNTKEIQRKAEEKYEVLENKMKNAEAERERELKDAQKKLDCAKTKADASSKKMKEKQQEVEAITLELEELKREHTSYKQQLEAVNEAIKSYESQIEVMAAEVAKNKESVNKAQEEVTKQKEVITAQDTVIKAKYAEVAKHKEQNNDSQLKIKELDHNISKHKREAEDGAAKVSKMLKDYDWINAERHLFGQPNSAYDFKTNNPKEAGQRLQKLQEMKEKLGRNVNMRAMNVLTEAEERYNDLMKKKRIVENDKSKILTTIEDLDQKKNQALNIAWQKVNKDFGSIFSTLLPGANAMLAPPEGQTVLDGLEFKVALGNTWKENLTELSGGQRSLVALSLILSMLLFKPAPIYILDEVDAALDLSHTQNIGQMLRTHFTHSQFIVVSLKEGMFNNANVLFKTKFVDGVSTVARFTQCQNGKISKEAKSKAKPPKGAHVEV

[6] = biological target: T1, CAP-G2 (in recombinant human condensin …); experiment: cryo-EM structure

Chain of condensin II pentamer (recombinant, human) (O95347 whole entry, chain 1 of 2): as the sequence (O95347 whole entry) above
Chain of condensin II pentamer (recombinant, human) (Q9NTJ3 2-1288, chain 2 of 2): as the sequence (Q9NTJ3 2-1288) above

binding result [1]: binds | binding result [2]: binds
B1: MBP-MCPH1_(1-435) (domain or fragment)
chain: MAAPILKDVVAYVEVWSSNGTENYSKTFTTQLVDMGAKVSKTFNKQVTHVIFKDGYQSTWDKAQKRGVKLVSVLWVEKCRTAGAHIDESLFPAANMNEHLSSLIKKKRKCMQPKDFNFKTPENDKRFQKKFEKMAKELQRQKTNLDDDVPILLFESNGSLIYTPTIEINSRHHSAMEKRLQEMKEKRENLSPTSSQMIQQSHDNPSNSLCEAPLNISRDTLCSDEYFAGGLHSSFDDLCGNSGCGNQERKLEGSINDIKSDVCISSLVLKANNIHSSPSFTHLDKSSPQKFLSNLSKEEINLQRNIAGKVVTPDQKQAAGMSQETFEEKYRLSPTLSSTKGHLLIHSRPRSSSVKRKRVSHGSHSPPKEKCKRKRSTRRSIMPRLQLCRSEDRLQHVAGPALEALSCGESSYDDYFSPDNLKERYSENLPPESQL

binding result [3]: binds | binding result [4]: binds | binding result [5]: binds | binding result [6]: binds
B2: CAP-H2 (in recombinant human condensin II) (natural protein)
chain: MEDVEARFAHLLQPIRDLTKNWEVDVAAQLGEYLEELDQICISFDEGKTTMNFIEAALLIQGSACVYSKKVEYLYSLVYQALDFISGKRRAKQLSSVQEDRANGVASSGVPQEAENEFLSLDDFPDSRTNVDLKNDQTPSEVLIIPLLPMALVAPDEMEKNNNPLYSRQGEVLASRKDFRMNTCVPHPRGAFMLEPEGMSPMEPAGVSPMPGTQKDTGRTEEQPMEVSVCRSPVPALGFSQEPGPSPEGPMPLGGGEDEDAEEAVELPEASAPKAALEPKESRSPQQSAALPRRYMLREREGAPEPASCVKETPDPWQSLDPFDSLESKPFKKGRPYSVPPCVEEALGQKRKRKGAAKLQDFHQWYLAAYADHADSRRLRRKGPSFADMEVLYWTHVKEQLETLRKLQRREVAEQWLRPAEEDHLEDSLEDLGAADDFLEPEEYMEPEGADPREAADLDAVPMSLSYEELVRRNVELFIATSQKFVQETELSQRIRDWEDTVQPLLQEQEQHVPFDIHTYGDQLVSRFPQLNEWCPFAELVAGQPAFEVCRSMLASLQLANDYTVEITQQPGLEMAVDTMSLRLLTHQRAHKRFQTYAAPSMAQP
